Measurements taken from patent US20250313626A1 (HARBOUR BIOMED SHANGHAI, published 2025).

T1: human CD200R1 isoform a on CHOK1 cells (CHOK1/hCD200R1a) (human, UniProt Q8TD46 25-348)
T1 construct: also called CHOK1/CD200R1a
T1 sequence: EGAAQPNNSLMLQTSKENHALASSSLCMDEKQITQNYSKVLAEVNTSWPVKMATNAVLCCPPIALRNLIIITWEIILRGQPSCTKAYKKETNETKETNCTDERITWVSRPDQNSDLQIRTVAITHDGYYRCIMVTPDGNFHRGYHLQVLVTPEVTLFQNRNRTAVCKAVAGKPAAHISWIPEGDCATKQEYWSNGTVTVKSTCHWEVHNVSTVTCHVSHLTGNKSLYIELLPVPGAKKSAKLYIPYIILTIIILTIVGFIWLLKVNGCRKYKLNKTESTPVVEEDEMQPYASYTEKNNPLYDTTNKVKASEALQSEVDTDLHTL

T2: cell surface glycoprotein CD200 receptor 2 isoform 1 precursor CD200R1L recombinant protein (Sino … (human, UniProt Q6Q8B3 24-239))
T2 construct: Bought protein; also called hCD200R1L; recombinant human CD200R1L protein
T2 sequence: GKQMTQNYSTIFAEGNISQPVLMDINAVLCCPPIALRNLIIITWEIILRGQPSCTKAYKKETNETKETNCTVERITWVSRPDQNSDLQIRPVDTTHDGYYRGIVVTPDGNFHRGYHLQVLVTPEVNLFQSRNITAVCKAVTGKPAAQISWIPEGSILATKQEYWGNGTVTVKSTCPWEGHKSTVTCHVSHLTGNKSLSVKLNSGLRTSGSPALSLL

T3: human CD200R1a protein (soluble recombinant) (human, UniProt Q8TD46 29-265)
T3 construct: Soluble protein used in BLI; also called human CD200R1 isoform a; not shown: His tag implied by capture on anti-Penta-HIS biosensors
T3 sequence: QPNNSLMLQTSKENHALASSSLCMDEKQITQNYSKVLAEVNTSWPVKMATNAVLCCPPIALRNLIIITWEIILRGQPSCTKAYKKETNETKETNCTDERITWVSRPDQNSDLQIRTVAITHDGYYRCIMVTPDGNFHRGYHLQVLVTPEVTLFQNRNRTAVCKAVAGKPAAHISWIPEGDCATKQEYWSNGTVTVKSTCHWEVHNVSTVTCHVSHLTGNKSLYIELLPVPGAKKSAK


How the values were obtained:
[1] = molecular target: T1, human CD200R1 isoform a on CHOK1 cells …; experiment: flow cytometry blocking assay: biotin-labelled human CD200 binding to CHOK1/hCD200R1a cells; y axis Inhibition %
Protocol: (§1) In brief, CHOK1/hCD200R1a cells were digested and resuspended in 2% BSA in PBS. […] The cells were placed at 4° C. and incubated for 1 hour in the dark. […] 100 μL/well of pre-cooled PBS containing 2% BSA was added to rinse the cells twice, centrifugation was performed at 500 g, 4° C. for 5 minutes, and the supernatant was discarded. Fluorescent secondary antibody (PE Streptavidin, BD, Cat #: 554061, 1:200) was added at 100 μL/well, and incubation was performed at 4° C. for 30 minutes in the dark. The cells were washed twice with 200 μL/well of pre-cooled PBS, and were centrifuged at 500 g, 4° C. for 5 minutes, and the supernatant was discarded. Finally, 200 μL/well of pre-cooled PBS was used to resuspend the cells, and the fluorescence signal values were read using ACEA Novocyte 3000 flow cytometer. IC50 values were calculated.

[2] = molecular target: T1, human CD200R1 isoform a on CHOK1 cells …; experiment: flow cytometry, CHOK1/hCD200R1a cells (FITC-Mean); table beside the curves, head without unit, x axis Log [Ab] (nM)
[3] = molecular target: T1, human CD200R1 isoform a on CHOK1 cells …; experiment: flow cytometry blocking assay: antibody titrated against biotin-labelled human CD200 binding to CHOK1/hCD200R1a cells
Protocol: To study the activity of human anti-CD200R1 antibodies in blocking the binding of human CD200 to its receptor CD200R1a in vitro, CHOK1/hCD200R1a was used to perform cell-level human CD200/human CD200R1a binding and blocking experiments.
as §1

[4] = molecular target: T2, cell surface glycoprotein CD200 …; experiment: ELISA on plate-coated recombinant human CD200R1L
Protocol: In specific, the cell surface glycoprotein CD200 receptor 2 isoform 1 precursor CD200R1L recombinant protein (Sino Biologicals, 11620-H08H, SEQ ID NO:174) were diluted with PBS to 1 μg/mL, and added to a 96-well plate (Corning, #9018) at 100 μl per well, and incubated overnight at 4° C. After the liquid was discarded, the plate was washed 3 times with PBST buffer (pH 7.4, containing 0.05% tween-20), 250 μl 2% BSA blocking solution was added into the plate and incubated at 37° C. for 1 hour. The blocking solution was discarded and the plate was washed 3 times with PBST buffer (pH 7.4, containing 0.05% Tween-20). The anti-CD200R1 antibodies were diluted and added at 100 µl/well, incubated at 37° C. for 1 hour, with isotype antibody as a control. After the plate was washed 3 times with PBST buffer (pH 7.4, containing 0.05% Tween-20), goat anti-human HRP secondary antibody (Invitrogen, #A18805) was diluted 5000 times, added into the plate and incubated for 1 hour at 37° C. in the dark. After the plate was washed with PBST buffer (pH 7.4, containing 0.05% tween-20) for 3 times, 100p/well of TMB (Biopanda, #TMB-S-003) was add and the plate was placed in the dark at room temperature for about 30 minutes; stop solution (BBI life sciences, #E661006-0200) was added at 50p/well to each well to terminate the reaction, and the absorbance (OD450) at 450 nm was measured in a microplate reader (PerkinElemer, #Enspire).

[5] = molecular target: T3, human CD200R1a protein (soluble …); experiment: BLI in-tandem competition on His-captured human CD200R1a; row = 1st Ab (400 nM); competitor (2nd Ab) PR006207
Protocol: To determine if the anti-CD200R1 antibodies bind to human CD200R1a on different or approximate binding epitopes, epitope competition experiments for the anti-CD200R1 antibodies were performed by the ForteBlio Octet® RED96e platform. […] The in-tandem competition assay format was applied, and it contained two association steps. Firstly, the antigen-loaded biosensors bound to each antibody (i.e., First antibody, 1st Ab) at a saturating concentration of 400 nM for 300 seconds to reach equilibrium and then secondly bound to the competing antibodies (i.e., Second antibody, 2nd Ab) of 400 nM for 300 seconds. The second binding signals are recorded as the 100% signal of each antibody when the first antibodies are replaced by kinetic buffer. All the binding data were analyzed using ForteBlio Data Analysis 11.0 software. The inhibition rate was calculated by the following formula: […]

| Binder | Blocking(Max) [1] | EC50 [2] | Blocking (Max %) [3] | IC50 [3] | binding result [4] | Inhibition ratio (%) [5] |
| --- | --- | --- | --- | --- | --- | --- |
| PR002906 (antibody, V domains shown, also called recombinant IgG1 antibody of huDX182) VH: QVQLQESGPGLVKPSETLSLTCTVSGYTITSGYDWSWIRQPPGKGLEWIGYINYGGSTNYKPSLGSRVTISVDTSKNQFSLKLSSVTAADTAVYYCARYNEYKSYIYDWYFDFWGQGTLVTVSS VL: DIQMTQSPSSLSASVGDRVTITCKASKNIRSYLAWYQQKPGKAPKLLIYSGSTLHSGVPSRFSGSGSGTDFTLTISSLQPEDFATYYCQQHHEYPLTFGQGTKVEIKR | 95.4% | 0.292 nM | 98.3% | 1.58 nM | – | – |
| PR005509 (antibody, human IgG1, kappa, L234A L235A, V domains shown) VH: QVQLVESGGGVVQPGRSLRLSCAASGFTFSSYGFHWVRQAPGKGLEWLGLIWSDGSNKYYADSVKGRFTISRDNSKNTLYLQMNSLRAEDTAVYYCARDRIVGAGFDYWGQGTLVTVSS VL: not shown | – | – | 102% | 0.485 nM | – | – |
| PR005474 (antibody, human IgG1, kappa, L234A L235A, V domains shown) VH: QVQLVESGGGVVQPGRSLRLSCAASAFTFSSYGMHWVRQAPGKGLEWVALIWNDGSNKFYADSVKGRFTISRDNSKNTLFLQMNSLRAEDTAVYYCARDRILGAGFDYWGQGTLVTVSS VL: not shown | – | – | 101% | 0.309 nM | – | – |
| PR007973 (antibody, human IgG1, kappa, V domains shown, PTM variant of PR006839 (human IgG1)) VH: QVQLVESGGGVVQPGRSLRLSCAASGFTFSSYGFHWVRQAPGKGLEWLGIIWSDASNKYYADSVKGRFTISRDNSKNTLYLQMNSLRAEDTAVYYCARDRIVGEGFDYWGQGTLVTVSS VL: not shown | – | – | – | – | no binding (tested: 100 nM) | -44.7% |
| PR006480 (antibody, human IgG1, kappa, L234A L235A, also called PR6480) heavy: not shown light: DIQMTQSPPSLSASVGDRVTITCRASQSISSYLNWFQQKAGKAPKLLISATSNLQSGVPSRFSGSGSGTDFTLTISSLQPEDLATYYCQQSYSSPYTFGQGTKVEIKRTVAAPSVFIFPPSDEQLKSGTASVVCLLNNFYPREAKVQWKVDNALQSGNSQESVTEQDSKDSTYSLSSTLTLSKADYEKHKVYACEVTHQGLSSPVTKSFNRGEC | 61% | 0.124 nM | 63.3% | 0.607 nM | – | – |
| PR007221 (antibody, human IgG1, kappa, PTM variant of PR006895 (human IgG1)) heavy: not shown light: DIQLTQSPPSLSASVGDRVTITCRASQSISSYLNWFQQKAGKAPKLLISATSNLQSGVPSRFSGSGSGTDFTLTISSLQPEDLATYYCQQTLSSPYTFGQGTKVEIKRTVAAPSVFIFPPSDEQLKSGTASVVCLLNNFYPREAKVQWKVDNALQSGNSQESVTEQDSKDSTYSLSSTLTLSKADYEKHKVYACEVTHQGLSSPVTKSFNRGEC | 80.4% | 0.172 nM | – | – | no binding (tested: 100 nM) | -40.7% |
| PR007223 (antibody, human IgG1, kappa, PTM variant of PR006895 (human IgG1)) heavy: not shown light: DIQLTQSPPSLSASVGDRVTITCRASQSISSYLNWFQQKAGKAPKLLISATSNLQSGVPSRFSGSGSGTDFTLTISSLQPEDLATYYCQQTYSSPYTFGQGTKVEIKRTVAAPSVFIFPPSDEQLKSGTASVVCLLNNFYPREAKVQWKVDNALQSGNSQESVTEQDSKDSTYSLSSTLTLSKADYEKHKVYACEVTHQGLSSPVTKSFNRGEC | 88% | 0.133 nM | – | – | no binding (tested: 100 nM) | -50.2% |
